We go through one substance from patent publication US20070231324A1.

The target of this assay is CD20 (human) (UniProt P11836). Briefly: FACS staining of Ramos, Daudi, Raji and BJAB B lymphoma cells.
UniProt P11836, sequence (P11836 whole entry): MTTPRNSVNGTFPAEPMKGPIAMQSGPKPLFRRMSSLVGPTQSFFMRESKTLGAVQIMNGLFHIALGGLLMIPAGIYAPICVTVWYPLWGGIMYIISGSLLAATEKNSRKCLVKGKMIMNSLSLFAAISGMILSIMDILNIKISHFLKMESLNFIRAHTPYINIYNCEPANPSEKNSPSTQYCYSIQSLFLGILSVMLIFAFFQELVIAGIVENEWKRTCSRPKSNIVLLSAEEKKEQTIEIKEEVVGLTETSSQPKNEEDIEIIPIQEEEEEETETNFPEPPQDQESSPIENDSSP

For “RITUXAN® (rituximab), monoclonal antibody specific for CD20”, the mean fluorescence shift was in the range of 5 to 15 units.
